Laboratory results reported in patent US20210155689A1 (SHANGHAI PHARMAEXPLORER, published 2021).
Values joined by “and” are separate entries in the source; they are usually repeats but may differ in a detail not shown here. Equal values may be shown once. Values belong to the substance of their own block, whether it stands above or below them.

Legend:
[1] = target: mouse LAG-3 protein with hFc tag (mLAG-3-hFc protein) (mouse; human) (UniProt Q61790); experiment: ELISA, mLAG-3-hFc coated; 0.0001 nM
[2] = target: mouse LAG-3 protein with hFc tag (mLAG-3-hFc protein) (mouse; human) (UniProt Q61790); experiment: ELISA, mLAG-3-hFc coated; 0.6667 nM
[3] = target: human LAG-3 protein (full length, on cells) (human) (UniProt P18627); experiment: FACS on HEK293-hLAG-3 cells, antibody 8 nM
[4] = target: hFc tagged monkey LAG-3 protein (cLAG-3-hFc protein) (monkey; human); experiment: ELISA, cLAG-3-hFc coated; 0.0001 nM
[5] = target: hFc tagged monkey LAG-3 protein (cLAG-3-hFc protein) (monkey; human); experiment: ELISA, cLAG-3-hFc coated; 0.0007 nM
[6] = target: hFc tagged monkey LAG-3 protein (cLAG-3-hFc protein) (monkey; human); experiment: ELISA, cLAG-3-hFc coated; 66.6670 nM
[7] = target: human LAG-3-hFc protein (human) (UniProt P18627); experiment: competition FACS: inhibition of LAG-3-hFc binding to MHC II on Raji cells, antibody 2.469 nM
[8] = target: human LAG-3 protein (full length, on cells) (human) (UniProt P18627); experiment: FACS on HEK293-hLAG-3 cells, antibody 1.6 nM
[9] = target: human LAG-3 protein with hFc tag (hLAG-3-hFc protein) (human) (UniProt P18627); experiment: ELISA, hLAG-3-hFc coated; 0.0007 nM
[10] = target: human LAG-3 protein with hFc tag (hLAG-3-hFc protein) (human) (UniProt P18627); experiment: ELISA, hLAG-3-hFc coated; 66.6670 nM
[11] = target: hFc tagged monkey LAG-3 protein (cLAG-3-hFc protein) (monkey; human); experiment: ELISA, cLAG-3-hFc coated; 0.6667 nM
[12] = target: human LAG-3-hFc protein (human) (UniProt P18627); experiment: competition FACS: inhibition of LAG-3-hFc binding to MHC II on Raji cells, antibody 0.823 nM
[13] = target: mouse LAG-3 protein with hFc tag (mLAG-3-hFc protein) (mouse; human) (UniProt Q61790); experiment: ELISA, mLAG-3-hFc coated; 6.6667 nM
[14] = target: human LAG-3 protein with hFc tag (hLAG-3-hFc protein) (human) (UniProt P18627); experiment: ELISA, hLAG-3-hFc coated; 6.6667 nM
[15] = target: hFc tagged monkey LAG-3 protein (cLAG-3-hFc protein) (monkey; human); experiment: ELISA, cLAG-3-hFc coated; 6.6667 nM
[16] = target: mouse LAG-3 protein with hFc tag (mLAG-3-hFc protein) (mouse; human) (UniProt Q61790); experiment: ELISA, mLAG-3-hFc coated; 66.6670 nM
[17] = target: human LAG-3 protein (full length, on cells) (human) (UniProt P18627); experiment: FACS on HEK293-hLAG-3 cells, antibody 0.064 nM
[18] = target: mouse LAG-3 protein with hFc tag (mLAG-3-hFc protein) (mouse; human) (UniProt Q61790); experiment: ELISA, mLAG-3-hFc coated; 0.0067 nM
[19] = target: human LAG-3 protein with hFc tag (hLAG-3-hFc protein) (human) (UniProt P18627); experiment: ELISA, hLAG-3-hFc coated; 0.0667 nM
[20] = target: human LAG-3 protein (full length, on cells) (human) (UniProt P18627); experiment: FACS on HEK293-hLAG-3 cells, antibody 0.013 nM
[21] = target: human LAG-3 protein (full length, on cells) (human) (UniProt P18627); experiment: FACS on HEK293-hLAG-3 cells, antibody 0 nM (background)
[22] = target: human LAG-3-hFc protein (human) (UniProt P18627); experiment: competition FACS: inhibition of LAG-3-hFc binding to MHC II on Raji cells, antibody 66.667 nM
[23] = target: mouse LAG-3 protein with hFc tag (mLAG-3-hFc protein) (mouse; human) (UniProt Q61790); experiment: ELISA, mLAG-3-hFc coated; 0.0007 nM
[24] = target: human LAG-3 protein with hFc tag (hLAG-3-hFc protein) (human) (UniProt P18627); experiment: ELISA, hLAG-3-hFc coated; 0.0001 nM
[25] = target: human LAG-3 protein with hFc tag (hLAG-3-hFc protein) (human) (UniProt P18627); experiment: ELISA, hLAG-3-hFc coated; 0.0067 nM
[26] = target: human LAG-3-hFc protein (human) (UniProt P18627); experiment: competition FACS: inhibition of LAG-3-hFc binding to MHC II on Raji cells, antibody 200.000 nM
[27] = target: hFc tagged monkey LAG-3 protein (cLAG-3-hFc protein) (monkey; human); experiment: ELISA, cLAG-3-hFc coated; 0.0067 nM
[28] = target: human LAG-3 protein with hFc tag (hLAG-3-hFc protein) (human) (UniProt P18627); experiment: ELISA, hLAG-3-hFc coated; 0.0000 nM
[29] = target: human LAG-3 protein with hFc tag (hLAG-3-hFc protein) (human) (UniProt P18627); experiment: ELISA, hLAG-3-hFc coated; 0.6667 nM
[30] = target: human LAG-3-hFc protein (human) (UniProt P18627); experiment: competition FACS: inhibition of LAG-3-hFc binding to MHC II on Raji cells, antibody 7.407 nM
[31] = target: human LAG-3 protein (full length, on cells) (human) (UniProt P18627); experiment: FACS on HEK293-hLAG-3 cells, antibody 0.32 nM
[32] = target: mouse LAG-3 protein with hFc tag (mLAG-3-hFc protein) (mouse; human) (UniProt Q61790); experiment: ELISA, mLAG-3-hFc coated; 0.0667 nM
[33] = target: human LAG-3-hFc protein (human) (UniProt P18627); experiment: competition FACS: inhibition of LAG-3-hFc binding to MHC II on Raji cells, antibody 0.000 nM
[34] = target: hFc tagged monkey LAG-3 protein (cLAG-3-hFc protein) (monkey; human); experiment: ELISA, cLAG-3-hFc coated; 0.0667 nM
[35] = target: human LAG-3 protein (full length, on cells) (human) (UniProt P18627); experiment: cell-based or functional assay
[36] = target: hFc tagged monkey LAG-3 protein (cLAG-3-hFc protein) (monkey; human); experiment: ELISA, cLAG-3-hFc coated; 0.0000 nM
[37] = target: human LAG-3-hFc protein (human) (UniProt P18627); experiment: competition FACS: inhibition of LAG-3-hFc binding to MHC II on Raji cells, antibody 0.274 nM
[38] = target: human LAG-3-hFc protein (human) (UniProt P18627); experiment: competition FACS: inhibition of LAG-3-hFc binding to MHC II on Raji cells, antibody 22.222 nM
MHC II on Raji cells [39] = experiment: FACS, Raji cells; 7.4 ug/ml
MHC II on Raji cells [40] = experiment: FACS, Raji cells; 22.2 ug/ml
MHC II on Raji cells [41] = experiment: FACS, Raji cells; 66.7 ug/ml
MHC II on Raji cells [42] = experiment: FACS, Raji cells; 0 ug/ml
MHC II on Raji cells [43] = experiment: FACS, Raji cells; 0.3 ug/ml
MHC II on Raji cells [44] = experiment: FACS, Raji cells; 0.1 ug/ml
MHC II on Raji cells [45] = experiment: FACS, Raji cells; 0.8 ug/ml
MHC II on Raji cells [46] = experiment: FACS, Raji cells; 200 ug/ml
MHC II on Raji cells [47] = experiment: FACS, Raji cells; 2.5 ug/ml
[48] = target: human LAG-3 protein with hFc tag (hLAG-3-hFc protein) (human) (UniProt P18627); experiment: ELISA, hLAG-3-hFc coated 1 ug/ml; 1.2000 ug/mL
[49] = target: human LAG-3 protein with hFc tag (hLAG-3-hFc protein) (human) (UniProt P18627); experiment: ELISA, hLAG-3-hFc coated 1 ug/ml; 0.0480 ug/mL
[50] = target: human LAG-3 protein with hFc tag (hLAG-3-hFc protein) (human) (UniProt P18627); experiment: ELISA, hLAG-3-hFc coated 1 ug/ml; 0.0000 ug/mL
[51] = target: human LAG-3 protein with hFc tag (hLAG-3-hFc protein) (human) (UniProt P18627); experiment: ELISA, hLAG-3-hFc coated 1 ug/ml; 0.0019 ug/mL
[52] = target: human LAG-3 protein with hFc tag (hLAG-3-hFc protein) (human) (UniProt P18627); experiment: ELISA, hLAG-3-hFc coated 1 ug/ml; 6.0000 ug/mL
[53] = target: human LAG-3 protein with hFc tag (hLAG-3-hFc protein) (human) (UniProt P18627); experiment: ELISA, hLAG-3-hFc coated 1 ug/ml; 0.0096 ug/mL
[54] = target: human LAG-3 protein with hFc tag (hLAG-3-hFc protein) (human) (UniProt P18627); experiment: ELISA, hLAG-3-hFc coated 1 ug/ml; 30.0000 ug/mL
[55] = target: human LAG-3 protein with hFc tag (hLAG-3-hFc protein) (human) (UniProt P18627); experiment: ELISA, hLAG-3-hFc coated 1 ug/ml; 0.2400 ug/mL

human LAG-3 protein (full length, on cells) (human), sequence (P18627 23-525 limits assumed): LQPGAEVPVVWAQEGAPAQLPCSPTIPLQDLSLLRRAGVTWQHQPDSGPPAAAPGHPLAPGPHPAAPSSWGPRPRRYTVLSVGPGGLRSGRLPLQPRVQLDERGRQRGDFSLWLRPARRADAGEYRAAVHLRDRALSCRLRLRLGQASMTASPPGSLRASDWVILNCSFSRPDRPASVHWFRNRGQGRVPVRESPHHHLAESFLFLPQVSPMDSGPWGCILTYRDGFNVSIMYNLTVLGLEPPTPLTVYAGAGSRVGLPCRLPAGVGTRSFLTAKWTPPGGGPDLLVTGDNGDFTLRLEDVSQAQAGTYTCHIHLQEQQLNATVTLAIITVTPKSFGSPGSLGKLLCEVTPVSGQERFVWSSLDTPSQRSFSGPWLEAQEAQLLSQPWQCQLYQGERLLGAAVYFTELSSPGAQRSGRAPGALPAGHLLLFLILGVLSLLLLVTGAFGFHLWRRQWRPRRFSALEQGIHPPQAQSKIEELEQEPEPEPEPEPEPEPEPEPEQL
hFc tagged monkey LAG-3 protein (cLAG-3-hFc protein) (monkey; human), sequence (chain, as listed by the source): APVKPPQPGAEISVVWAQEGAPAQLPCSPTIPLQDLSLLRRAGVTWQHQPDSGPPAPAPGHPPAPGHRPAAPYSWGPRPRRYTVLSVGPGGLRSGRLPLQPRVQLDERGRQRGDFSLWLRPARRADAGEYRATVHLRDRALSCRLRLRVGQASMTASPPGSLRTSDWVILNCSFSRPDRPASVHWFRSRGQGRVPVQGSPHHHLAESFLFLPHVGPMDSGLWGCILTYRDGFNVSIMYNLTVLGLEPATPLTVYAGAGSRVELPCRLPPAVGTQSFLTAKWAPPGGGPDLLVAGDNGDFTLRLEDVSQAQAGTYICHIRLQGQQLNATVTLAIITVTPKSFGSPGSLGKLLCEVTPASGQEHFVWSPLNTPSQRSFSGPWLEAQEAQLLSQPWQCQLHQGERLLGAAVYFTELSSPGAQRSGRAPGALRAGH
human LAG-3-hFc protein (human), sequence (P18627 23-450): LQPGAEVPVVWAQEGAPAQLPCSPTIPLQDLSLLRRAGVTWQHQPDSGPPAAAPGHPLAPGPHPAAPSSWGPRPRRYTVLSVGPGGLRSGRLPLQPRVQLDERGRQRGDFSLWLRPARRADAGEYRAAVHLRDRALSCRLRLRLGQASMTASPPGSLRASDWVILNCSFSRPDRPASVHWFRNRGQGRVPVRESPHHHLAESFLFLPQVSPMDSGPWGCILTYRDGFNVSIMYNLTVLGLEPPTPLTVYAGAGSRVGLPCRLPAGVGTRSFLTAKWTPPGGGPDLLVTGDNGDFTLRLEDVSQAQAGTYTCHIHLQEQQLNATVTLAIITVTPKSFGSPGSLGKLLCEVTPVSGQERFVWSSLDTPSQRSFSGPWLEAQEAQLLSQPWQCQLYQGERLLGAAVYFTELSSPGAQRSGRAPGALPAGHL
human LAG-3 protein with hFc tag (hLAG-3-hFc protein) (human), sequence (P18627 23-450): as above
mouse LAG-3 protein with hFc tag (mLAG-3-hFc protein) (mouse; human), sequence (Q61790 24-442): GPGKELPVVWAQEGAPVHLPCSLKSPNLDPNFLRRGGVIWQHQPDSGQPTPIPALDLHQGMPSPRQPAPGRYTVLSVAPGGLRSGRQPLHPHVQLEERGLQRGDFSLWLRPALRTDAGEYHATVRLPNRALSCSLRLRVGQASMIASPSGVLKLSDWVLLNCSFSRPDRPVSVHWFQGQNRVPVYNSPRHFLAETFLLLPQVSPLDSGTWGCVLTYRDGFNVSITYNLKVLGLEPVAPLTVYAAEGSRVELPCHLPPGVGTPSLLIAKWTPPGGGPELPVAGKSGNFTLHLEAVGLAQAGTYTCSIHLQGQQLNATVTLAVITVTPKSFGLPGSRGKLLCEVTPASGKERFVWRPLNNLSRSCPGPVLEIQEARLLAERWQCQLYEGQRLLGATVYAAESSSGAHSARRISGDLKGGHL

OD450 [1]: 0.08 OD450
OD450 [2]: 0.09 OD450
Mean fluorescence intensity [3]: 3 MFI
OD450 [4]: 0.14 OD450
OD450 [5]: 0.13 OD450
OD450 [6]: 1.16 OD450
Inhibition rate (%) [7]: 3%
Mean fluorescence intensity [8]: 3 MFI
OD450 [9]: 0.1 OD450
OD450 [10]: 1.17 OD450
OD450 [11]: 0.18 OD450
Inhibition rate (%) [12]: 2%
OD450 [13]: 0.18 OD450
OD450 [14]: 0.29 OD450
OD450 [15]: 0.29 OD450
OD450 [16]: 0.56 OD450
Mean fluorescence intensity [17]: 3 MFI
OD450 [18]: 0.08 OD450
OD450 [19]: 0.11 OD450
Mean fluorescence intensity [20]: 3 MFI
Mean fluorescence intensity [21]: 3 MFI
Inhibition rate (%) [22]: 4%
OD450 [23]: 0.07 OD450
OD450 [24]: 0.1 OD450
OD450 [25]: 0.13 OD450
Inhibition rate (%) [26]: 1%
OD450 [27]: 0.19 OD450
OD450 [28]: 0.11 OD450
OD450 [29]: 0.14 OD450
Inhibition rate (%) [30]: 1%
Mean fluorescence intensity [31]: 3 MFI
OD450 [32]: 0.08 OD450
Inhibition rate (%) [33]: 0%
OD450 [34]: 0.14 OD450
IL-2 production, pg/ml; antibody 0.0032 ug/ml, N = 1 [35]: 144 pg/mL
IL-2 production, pg/ml; antibody 0.0032 ug/ml, N = 2 [35]: 123 pg/mL
IL-2 production, pg/ml; antibody 0.016 ug/ml, N = 1 [35]: 141 pg/mL
IL-2 production, pg/ml; antibody 0.016 ug/ml, N = 2 [35]: 143 pg/mL
IL-2 production, pg/ml; antibody 0.08 ug/ml, N = 1 [35]: 157 pg/mL
IL-2 production, pg/ml; antibody 0.08 ug/ml, N = 2 [35]: 145 pg/mL
IL-2 production, pg/ml; antibody 0.4 ug/ml, N = 1 [35]: 159 pg/mL
IL-2 production, pg/ml; antibody 0.4 ug/ml, N = 2 [35]: 179 pg/mL
IL-2 production, pg/ml; antibody 2 ug/ml, N = 1 [35]: 164 pg/mL
IL-2 production, pg/ml; antibody 2 ug/ml, N = 2 [35]: 162 pg/mL
IL-2 production, pg/ml; antibody 10 ug/ml, N = 1 [35]: 142 pg/mL
IL-2 production, pg/ml; antibody 10 ug/ml, N = 2 [35]: 168 pg/mL
OD450 [36]: 0.13 OD450
Inhibition rate (%) [37]: 0%
Inhibition rate (%) [38]: 0%
Substance: hIgG control (human IgG) (antibody)

Mean fluorescence value (MHC II on Raji cells [39]): 18 MFI
Mean fluorescence value (MHC II on Raji cells [40]): 20 MFI
Mean fluorescence value (MHC II on Raji cells [41]): 28 MFI
Mean fluorescence value (MHC II on Raji cells [42]): 13 MFI
Mean fluorescence value (MHC II on Raji cells [43]): 11 MFI
Mean fluorescence value (MHC II on Raji cells [44]): 13 MFI
Mean fluorescence value (MHC II on Raji cells [45]): 12 MFI
Mean fluorescence value (MHC II on Raji cells [46]): 21 MFI
Mean fluorescence value (MHC II on Raji cells [47]): 14 MFI
Substance: hFc (control protein of Table 1)

OD450 [48]: 0.07 OD450 and 0.06 OD450
OD450 [49]: 0.06 OD450
OD450 [50]: 0.06 OD450
OD450 [51]: 0.06 OD450
OD450 [52]: 0.09 OD450
OD450 [53]: 0.06 OD450
OD450 [54]: 0.16 OD450 and 0.14 OD450
OD450 [55]: 0.07 OD450 and 0.06 OD450
Substance: Negative protein (control of Table 2)
